Measured values as given in the supplement of paper PMC7877785.
± gives the uncertainty stated by the source.

Assay: self-splicing fitness, log relative to wild type (ln ratio); higher = more splicing; Tetrahymena group I intron in knt gene, E. coli kanamycin selection, DiMSum; sequences stand for … in CUCUCU…GGAGGGAAAAGUUAUCAGGCAUGCACCUGGUAGCUAGUCUUUAAACCAAUAGAUUGCAUCGGUUUAAAAGGCAAGACCGUCAAAUUGCGGGAAAGGGGUCAACAGCCGUUCAGUACCAAGUCUCAGGGGAAACUUUGAGAUGGCCUUGCAAAGGGUAUGGUAAUAAGCUGACGGACAUGGUCCUAACCACGCAGCCAAGUCCUAAGUCAACAGAUCUUCUGUUGAUAUGGAUGCAGUUCACAGACUAAAUGUCGGUCGGGGAAGAUGUAUUCUUCUCAUAAGAUAUAGUCGGACCUCUCCUUAAUGGGAGCUAGCGGAUGAAGUGAUGCAACACUGGAGCCGCUGGGAACUAAUUUGUAUGCGAAAGUAUAUUGAUUAGUUUUGGAGUACUCGUGGUCG
Summary of the method: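 Library with all eight P1ex-region intron nucleotides randomised, intron inside the knt kanamycin-resistance gene on pET-22b(+), in E. coli BL21(DE3). Cells grew overnight at 37°C or 30°C on LB agar with or without 25 μg/mL kanamycin (plus 100 μg/mL carbenicillin, 50 μM IPTG, 0.2% rhamnose), in six replicate transformations. Pooled colonies were amplicon-sequenced on Illumina HiSeq 2500. DiMSum fitness is the error-weighted combination of wild-type-normalised replicate fold changes, kanamycin versus none.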

Sequence | self-splicing fitness (ln) (30 °C) | self-splicing fitness (ln) (37 °C)
UGCCAGCAAUAUUACGCAUG | -1.28 ± 0.085 | -1.43 ± 0.13
UGCCAGCAAUAUUACGCUAC | -3.47 ± 0.16 | -2.78 ± 0.2
UGCCAGCAAUAUUACGCUUC | -3.19 ± 0.23 | -1.86 ± 0.22
UGCCAGCAAUAUUACGGACU | -0.709 ± 0.075 | 0.139 ± 0.089
UGCCAGCAAUAUUACGGCUA | 0.121 ± 0.12 | 0.121 ± 0.12
UGCCAGCAAUAUUACGGGCU | -2.6 ± 0.19 | -1.61 ± 0.18
UGCCAGCAAUAUUACGGUAG | -1.89 ± 0.12 | -0.428 ± 0.11
UGCCAGCAAUAUUACGUAUU | -2.8 ± 0.13 | -2.56 ± 0.16
UGCCAGCAAUAUUACGUCAU | -3 ± 0.16 | -2.38 ± 0.18
UGCCAGCAAUAUUACGUUGA | -2.21 ± 0.074 | -1.26 ± 0.082
UGCCAGCAAUAUUACGUUGC | -2.93 ± 0.17 | -2.93 ± 0.18
UGCGAGCAAUAUUACGACAC | -2.71 ± 0.3 | 0.803 ± 0.27
UGCGAGCAAUAUUACGACGC | -3.46 ± 0.25 | –
UGCGAGCAAUAUUACGACUA | -1.26 ± 0.23 | -1.09 ± 0.28
UGCGAGCAAUAUUACGAGCC | – | -1.67 ± 0.43
UGCGAGCAAUAUUACGAGUA | -0.846 ± 0.14 | -1.84 ± 0.2
UGCGAGCAAUAUUACGAUAG | -3.32 ± 0.27 | -1.7 ± 0.38
UGCGAGCAAUAUUACGAUGA | -2.13 ± 0.16 | -1.4 ± 0.13
UGCGAGCAAUAUUACGCACG | -2.22 ± 0.28 | -1.98 ± 0.36
UGCGAGCAAUAUUACGCCGC | -3.34 ± 0.36 | -1.3 ± 0.43
UGCGAGCAAUAUUACGCUAA | -1.92 ± 0.21 | -2.48 ± 0.26
UGCGAGCAAUAUUACGGCCG | -1 ± 0.38 | –
UGCGAGCAAUAUUACGGCGU | -2.58 ± 0.18 | -0.48 ± 0.2
UGCGAGCAAUAUUACGGGAG | -4.04 ± 0.19 | -2.61 ± 0.17
UGCGAGCAAUAUUACGGUUU | -3.14 ± 0.3 | -2.62 ± 0.34

Sequence | self-splicing fitness (ln) (30 °C) | self-splicing fitness (ln) (37 °C)
UGCGAGCAAUAUUACGUACG | -3.12 ± 0.21 | -2.49 ± 0.22
UGCGAGCAAUAUUACGUAUC | -1.76 ± 0.16 | -2.37 ± 0.34
UGCGAGCAAUAUUACGUUCA | -1.45 ± 0.11 | -0.32 ± 0.15
UGCUAGCAAUAUUACGCAAA | – | -0.861 ± 0.16
UGCUAGCAAUAUUACGCACU | -2.3 ± 0.11 | -1.11 ± 0.11
UGCUAGCAAUAUUACGCCAG | – | -2.17 ± 0.39
UGCUAGCAAUAUUACGCCCA | 0.275 ± 0.1 | 0.384 ± 0.13
UGCUAGCAAUAUUACGCCCU | -0.725 ± 0.27 | -0.338 ± 0.27
UGCUAGCAAUAUUACGCUAC | -2.72 ± 0.48 | -2.32 ± 0.47
UGCUAGCAAUAUUACGCUGA | -1.25 ± 0.12 | -1.18 ± 0.13
UGCUAGCAAUAUUACGCUUA | -1.31 ± 0.11 | -0.517 ± 0.12
UGCUAGCAAUAUUACGGCAA | -0.895 ± 0.16 | -1.1 ± 0.16
UGCUAGCAAUAUUACGGCUU | -0.619 ± 0.13 | -1.06 ± 0.15
UGCUAGCAAUAUUACGGGAG | -2.68 ± 0.17 | -1.65 ± 0.13
UGCUAGCAAUAUUACGGUGA | -1.42 ± 0.12 | -0.513 ± 0.13
UGCUAGCAAUAUUACGGUGU | -3.16 ± 0.14 | -2.38 ± 0.19
UGCUAGCAAUAUUACGUACG | -0.494 ± 0.09 | 0.0248 ± 0.1
UGCUAGCAAUAUUACGUACU | -0.707 ± 0.075 | -0.893 ± 0.089
UGCUAGCAAUAUUACGUGCG | -1.94 ± 0.1 | -1.7 ± 0.12
UGCUAGCAAUAUUACGUGGA | -3 ± 0.19 | -2.44 ± 0.15
UGCUAGCAAUAUUACGUGUG | -1.63 ± 0.08 | -0.822 ± 0.096
UGGAAGCAAUAUUACGACAC | -2.87 ± 0.17 | -3.13 ± 0.25
UGGAAGCAAUAUUACGACUU | 0.319 ± 0.15 | 0.0401 ± 0.17
UGGAAGCAAUAUUACGAGUU | -3.25 ± 0.19 | -1.8 ± 0.16
UGGAAGCAAUAUUACGAUCA | -0.348 ± 0.093 | 0.181 ± 0.12

Sequence | self-splicing fitness (ln) (30 °C) | self-splicing fitness (ln) (37 °C)
UGGAAGCAAUAUUACGCAUC | – | -1.1 ± 0.3
UGGAAGCAAUAUUACGCCAA | -1.12 ± 0.24 | -0.536 ± 0.26
UGGAAGCAAUAUUACGCCCC | -1.69 ± 0.41 | -1.36 ± 0.35
UGGAAGCAAUAUUACGCGAU | -2.02 ± 0.14 | -2.12 ± 0.25
UGGAAGCAAUAUUACGCGCU | -1.17 ± 0.21 | -1.52 ± 0.3
UGGAAGCAAUAUUACGCGGC | -2.11 ± 0.26 | -1.08 ± 0.26
UGGAAGCAAUAUUACGCGUU | -4.13 ± 0.18 | -3.03 ± 0.26
UGGAAGCAAUAUUACGCUCG | -0.853 ± 0.13 | -0.272 ± 0.15
UGGAAGCAAUAUUACGCUUU | -3.64 ± 0.23 | -2.64 ± 0.28
UGGAAGCAAUAUUACGGAAA | -1.8 ± 0.41 | -1.43 ± 0.4
UGGAAGCAAUAUUACGGAAU | -2.76 ± 0.12 | -1.01 ± 0.096
UGGAAGCAAUAUUACGUCCC | -0.397 ± 0.19 | 0.402 ± 0.22
UGGAAGCAAUAUUACGUCCG | -2.72 ± 0.21 | -2.41 ± 0.22
UGGAAGCAAUAUUACGUGGG | -2.89 ± 0.13 | -2.53 ± 0.18
UGGCAGCAAUAUUACGAACU | -1.29 ± 0.12 | -0.471 ± 0.16
UGGCAGCAAUAUUACGAAGU | -3.69 ± 0.37 | -2.62 ± 0.23
UGGCAGCAAUAUUACGACCU | 0.0278 ± 0.12 | 0.0625 ± 0.12
UGGCAGCAAUAUUACGAUGG | -1.48 ± 0.17 | -1.67 ± 0.18
UGGCAGCAAUAUUACGCCGU | -2.63 ± 0.18 | -2.02 ± 0.17
UGGCAGCAAUAUUACGCGGG | -2.76 ± 0.27 | -1.48 ± 0.24
UGGCAGCAAUAUUACGCGUA | -0.0648 ± 0.084 | -0.33 ± 0.087
UGGCAGCAAUAUUACGCUAA | -0.652 ± 0.06 | 0.116 ± 0.069
UGGCAGCAAUAUUACGCUAC | -3.85 ± 0.35 | –
UGGCAGCAAUAUUACGCUCC | -2.19 ± 0.37 | –
UGGCAGCAAUAUUACGCUGC | -2.98 ± 0.25 | –

Sequence | self-splicing fitness (ln) (30 °C) | self-splicing fitness (ln) (37 °C)
UGGCAGCAAUAUUACGGAAA | -1.94 ± 0.16 | -0.318 ± 0.14
UGGCAGCAAUAUUACGGACA | 0.0855 ± 0.098 | 0.0548 ± 0.14
UGGCAGCAAUAUUACGGACU | -0.554 ± 0.066 | 0.386 ± 0.082
UGGCAGCAAUAUUACGGCAA | 0.308 ± 0.22 | 0.661 ± 0.19
UGGCAGCAAUAUUACGGCGG | -0.882 ± 0.11 | 0.549 ± 0.15
UGGCAGCAAUAUUACGGGGG | -3.38 ± 0.23 | -2.84 ± 0.29
UGGCAGCAAUAUUACGUAAU | -2.04 ± 0.082 | -1.05 ± 0.11
UGGCAGCAAUAUUACGUAUA | -1.29 ± 0.097 | 0.00255 ± 0.11
UGGCAGCAAUAUUACGUCGU | -2.65 ± 0.099 | -1.22 ± 0.096
UGGCAGCAAUAUUACGUUAG | -0.283 ± 0.087 | 0.37 ± 0.12
UGGGAGCAAUAUUACGAAUU | – | -2.63 ± 0.28
UGGGAGCAAUAUUACGACUG | -0.532 ± 0.39 | -1.31 ± 0.47
UGGGAGCAAUAUUACGACUU | -2.15 ± 0.091 | -0.921 ± 0.11
UGGGAGCAAUAUUACGCGGG | -3.85 ± 0.22 | -2.89 ± 0.19
UGGGAGCAAUAUUACGCGUC | -0.5 ± 0.36 | –
UGGGAGCAAUAUUACGGGGG | -2.97 ± 0.25 | -2.17 ± 0.35
UGGGAGCAAUAUUACGUACA | -1.26 ± 0.22 | -0.889 ± 0.42
UGGGAGCAAUAUUACGUCAC | -1.96 ± 0.36 | –
UGGGAGCAAUAUUACGUCAG | -2.87 ± 0.23 | -1.5 ± 0.3
UGGGAGCAAUAUUACGUCCA | -2.03 ± 0.12 | -1.13 ± 0.11
UGGGAGCAAUAUUACGUGCA | -1.07 ± 0.093 | -0.293 ± 0.11
UGGGAGCAAUAUUACGUGCC | -2.29 ± 0.34 | -2.09 ± 0.35
UGGGAGCAAUAUUACGUGGA | -2.94 ± 0.44 | -2.11 ± 0.2
UGGUAGCAAUAUUACGAACG | -0.892 ± 0.19 | 0.374 ± 0.22
